Consider four substances from publication PMC3699631, “Posttranslational Modifications of the Histone 3 Tail and Their Impact on the Activity of Histone Lysine Demethylases In Vitro” (PLoS ONE, 2013).

The target of one assay is T1, human cc-KDM4A (Homo sapiens, UniProt O75164).
T1 construct: Truncated constructs of KDM4A and KDM4C containing only the catalytic cores (cc-KDM4A/cc-KDM4C); made in house
T1 sequence (O75164 1-350 limits assumed): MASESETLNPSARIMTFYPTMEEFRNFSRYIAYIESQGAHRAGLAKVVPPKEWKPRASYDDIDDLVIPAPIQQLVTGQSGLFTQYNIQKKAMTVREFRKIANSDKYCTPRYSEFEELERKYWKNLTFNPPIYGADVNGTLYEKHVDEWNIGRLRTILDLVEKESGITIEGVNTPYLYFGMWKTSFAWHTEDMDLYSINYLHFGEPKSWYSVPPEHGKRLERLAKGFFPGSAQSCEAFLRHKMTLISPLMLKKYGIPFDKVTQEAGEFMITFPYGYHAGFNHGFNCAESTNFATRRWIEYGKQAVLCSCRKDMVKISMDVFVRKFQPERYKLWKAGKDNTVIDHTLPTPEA
The assay can be described thus: FDH-assay enzyme kinetics of H3 peptide demethylation, truncated KDM4A. Set-up: key to K m / k cat / k cat /K m: 0 means no demethylation could be detected. The assay is classed as biochemical. Particulars: cc-KDM4A; for K m / k cat / k cat /K m / demethylation / catalytic activity (in words): FDH-assay; for K m: 50 mM HEPES (pH 7.5), 50 mM NaCl, 50 µM FeSO4, 500 µM α-KG, 500 µM ascorbate, 2 mM NAD, substrate 10–1000 µM, NADH fluorescence 15–30 minutes; for K m / k cat / k cat /K m: triplicate; for k cat / k cat /K m: pH 7.5; for k cat: NADH fluorescence; for demethylation / catalytic activity (in words): compared to H3(1–24)K9me3 where a change is stated. As to the method:
(§1) The enzyme kinetics were measured using a Formaldehyde DeHydrogenase Assay (FDH-Assay) and the demethylation of substrates was confirmed when possible by MALDI-TOF-MS, see File S1 for details. The test solution contained 50 mM HEPES (pH 7.5), 50 mM NaCl, 50 µM FeSO4, 500 µM α-KG, 500 µM ascorbate, 2 mM NAD, approximately 0.05 unit of FDH and e.g. 4.88 µM KDM4C (enzyme concentration varied between batches). The reference solution was comprised of the same except substrate. The assay was initiated by adding various concentrations of H3 peptide substrates e.g. H3(1–24)K9me3 (10–1000 µM) and the increase in NADH fluorescence was measured over 15–30 minutes in 30 second intervals. Data analysis and kinetic values were obtained using programs Excel and GraphPad Prism® 5.0. For details, see File S1.
(§2) The standard deviations for k cat/K m were calculated using the statistic law of propagation of errors. Standard errors for Michaelis-Menten Kinetics were automatically given in GraphPad Prism®, with a 95% confidence interval. All enzyme kinetic curves were done in triplicate unless otherwise stated.
(§3) Test for activity of enzyme using the fluorescence FDH assay, determination of Vmax and Km of enzymes with substrate, expression and purification of cc-KDM4A and cc-KDM4C software and parameters for the FDH coupled assay, see Lohse et al.^21
(§4) The standard deviations for kcat/ Km were calculated using the statistic law of propagation of errors. Standard errors for Michaelis-Menten Kinetics were automatically given in GraphPad Prism®, with a 95 % confidence interval. All enzyme kinetic curves were done in triplicate unless otherwise stated.

For another assay, the target named is T2, human cc-KDM4C (Homo sapiens, UniProt Q9H3R0).
T2 construct: Truncated constructs of KDM4A and KDM4C containing only the catalytic cores (cc-KDM4A/cc-KDM4C); made in house
T2 sequence (Q9H3R0 1-349 limits assumed): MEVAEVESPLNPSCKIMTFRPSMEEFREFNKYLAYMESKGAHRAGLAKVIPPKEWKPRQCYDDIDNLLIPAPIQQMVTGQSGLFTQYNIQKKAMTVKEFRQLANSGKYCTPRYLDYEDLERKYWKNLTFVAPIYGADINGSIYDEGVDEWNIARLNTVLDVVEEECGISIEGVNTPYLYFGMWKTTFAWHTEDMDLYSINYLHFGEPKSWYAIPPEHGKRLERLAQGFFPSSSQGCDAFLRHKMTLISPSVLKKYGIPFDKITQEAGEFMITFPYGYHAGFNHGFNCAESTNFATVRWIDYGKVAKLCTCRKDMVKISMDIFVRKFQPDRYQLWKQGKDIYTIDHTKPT
The assay can be described thus: FDH-assay enzyme kinetics of H3 peptide demethylation, truncated KDM4C. To be noted: for K m / demethylation / catalytic activity (in words) / k cat / k cat /K m: FDH-assay; for K m: 50 mM HEPES (pH 7.5), 50 mM NaCl, 50 µM FeSO4, 500 µM α-KG, 500 µM ascorbate, 2 mM NAD, substrate 10–1000 µM, e.g. 4.88 µM KDM4C, NADH fluorescence 15–30 minutes; for K m / k cat: triplicate; for demethylation / catalytic activity (in words): compared to H3(1–24)K9me3 where a change is stated; for k cat: pH 7.5, NADH fluorescence; for k cat /K m: pH 7.5, triplicate. The assay is classed as biochemical. Here is the method:
as §1, §2, §3, §4

Setting [1] is: SD by propagation of errors, unit: min^−1 * µM^−1 * 10^3.
[2] abbreviates: SD by propagation of errors, unit: (min^−1 * µM^−1) * 10^3.

As for “H3(1–24)K4me3K9me3: bis-tri-methylated substrate, trimethylated K4 in combination with H3K9me3”, the K m in the assay with human cc-KDM4A is listed as 82±11; in the assay with human cc-KDM4C it was 70±13. In addition, the values for the k cat with human cc-KDM4A and with human cc-KDM4C were 1.1±0.04 and 1.2±0.1, respectively. Further, the “k cat /K m” value came out at 13.4±1.9 in the assay with human cc-KDM4A (setting [1]); 13±2 min^-1 * μM^-1 * 10^3 in the assay with human cc-KDM4A (figures and text); 17±2 in the assay with human cc-KDM4C (setting [2]); 17 ± 2 min^-1 * μM^-1 * 10^3 with human cc-KDM4C (figures). For the same substance, the “fold increase in k cat/K m” value in the assay with human cc-KDM4A (compared to H3(1–24)K9me3) and with human cc-KDM4C (compared to H3(1–24)K9me3) was 2 fold in each case. Moreover, the “demethylation / catalytic activity (in words)” value with human cc-KDM4C is on record as “an increase of the enzymatic catalytic efficiency”.

With “H3(1–24)K9me2: truncated histone tail, 24 first amino acids from the N-terminus of H3, dimethylated lysine 9”, the K m entry is on record as “Below detection” with human cc-KDM4A and 79±10 with human cc-KDM4C. In addition, the k cat entry in the assay with human cc-KDM4A is given as “Below detection”; in the assay with human cc-KDM4C it was 0.1±0.01. The “k cat /K m” value with human cc-KDM4A (setting [1]) is given as “Below detection”; with human cc-KDM4C (setting [2]), 1.3±0.2. In addition, in the assay with human cc-KDM4A, the “demethylation / catalytic activity (in words)” value is reported as “could not be detected”.

As for “H3(1–24)K9me3: truncated histone tail, 24 first amino acids from the N-terminus of H3, trimethylated lysine 9; control peptide”, the results for the K m in the assay with human cc-KDM4A and in the assay with human cc-KDM4C were 131±16 and 55±11, respectively. Moreover, the k cat with human cc-KDM4A came to 1.1±0.04; in the assay with human cc-KDM4C, 0.5±0.04. The “k cat /K m” value is 8.4±1.1 with human cc-KDM4A (setting [1]); 8.4±1.1 min^-1 * μM^-1 * 10^3 with human cc-KDM4A (figures and text); 9±1 with human cc-KDM4C (setting [2]); 9 ± 1 min^-1 * μM^-1 * 10^3 in the assay with human cc-KDM4C (figures).

Take “H3(1–24)K9me3T11(ph): H3(1–24)K9me3 with phosphorylation of threonine 11”: in the assay with human cc-KDM4A, the K m is 0, the k cat was 0 and the “demethylation / catalytic activity (in words)” value is listed as “no detectable turnover”. For the same substance, the “k cat /K m” value in the assay with human cc-KDM4A (setting [1]) is given as 0. Moreover, in the assay with human cc-KDM4C, the “demethylation / catalytic activity (in words)” value was “no detectable turnover”.
